The record followed here is patent US20050260657A1.

The target of assay [1] is IP3R1 (inositol 1,4,5-trisphosphate receptor type 1), untagged, expressed in cells (mouse) (UniProt P11881). As to the kind of experiment: cell-based or functional assay.
Assay [2] concerns the target endogenous IP3R1 of HeLa cells (UniProt Q14643). The assay is described as follows: cell-based or functional assay.

endogenous IP3R1 of HeLa cells, sequence (Q14643 whole entry): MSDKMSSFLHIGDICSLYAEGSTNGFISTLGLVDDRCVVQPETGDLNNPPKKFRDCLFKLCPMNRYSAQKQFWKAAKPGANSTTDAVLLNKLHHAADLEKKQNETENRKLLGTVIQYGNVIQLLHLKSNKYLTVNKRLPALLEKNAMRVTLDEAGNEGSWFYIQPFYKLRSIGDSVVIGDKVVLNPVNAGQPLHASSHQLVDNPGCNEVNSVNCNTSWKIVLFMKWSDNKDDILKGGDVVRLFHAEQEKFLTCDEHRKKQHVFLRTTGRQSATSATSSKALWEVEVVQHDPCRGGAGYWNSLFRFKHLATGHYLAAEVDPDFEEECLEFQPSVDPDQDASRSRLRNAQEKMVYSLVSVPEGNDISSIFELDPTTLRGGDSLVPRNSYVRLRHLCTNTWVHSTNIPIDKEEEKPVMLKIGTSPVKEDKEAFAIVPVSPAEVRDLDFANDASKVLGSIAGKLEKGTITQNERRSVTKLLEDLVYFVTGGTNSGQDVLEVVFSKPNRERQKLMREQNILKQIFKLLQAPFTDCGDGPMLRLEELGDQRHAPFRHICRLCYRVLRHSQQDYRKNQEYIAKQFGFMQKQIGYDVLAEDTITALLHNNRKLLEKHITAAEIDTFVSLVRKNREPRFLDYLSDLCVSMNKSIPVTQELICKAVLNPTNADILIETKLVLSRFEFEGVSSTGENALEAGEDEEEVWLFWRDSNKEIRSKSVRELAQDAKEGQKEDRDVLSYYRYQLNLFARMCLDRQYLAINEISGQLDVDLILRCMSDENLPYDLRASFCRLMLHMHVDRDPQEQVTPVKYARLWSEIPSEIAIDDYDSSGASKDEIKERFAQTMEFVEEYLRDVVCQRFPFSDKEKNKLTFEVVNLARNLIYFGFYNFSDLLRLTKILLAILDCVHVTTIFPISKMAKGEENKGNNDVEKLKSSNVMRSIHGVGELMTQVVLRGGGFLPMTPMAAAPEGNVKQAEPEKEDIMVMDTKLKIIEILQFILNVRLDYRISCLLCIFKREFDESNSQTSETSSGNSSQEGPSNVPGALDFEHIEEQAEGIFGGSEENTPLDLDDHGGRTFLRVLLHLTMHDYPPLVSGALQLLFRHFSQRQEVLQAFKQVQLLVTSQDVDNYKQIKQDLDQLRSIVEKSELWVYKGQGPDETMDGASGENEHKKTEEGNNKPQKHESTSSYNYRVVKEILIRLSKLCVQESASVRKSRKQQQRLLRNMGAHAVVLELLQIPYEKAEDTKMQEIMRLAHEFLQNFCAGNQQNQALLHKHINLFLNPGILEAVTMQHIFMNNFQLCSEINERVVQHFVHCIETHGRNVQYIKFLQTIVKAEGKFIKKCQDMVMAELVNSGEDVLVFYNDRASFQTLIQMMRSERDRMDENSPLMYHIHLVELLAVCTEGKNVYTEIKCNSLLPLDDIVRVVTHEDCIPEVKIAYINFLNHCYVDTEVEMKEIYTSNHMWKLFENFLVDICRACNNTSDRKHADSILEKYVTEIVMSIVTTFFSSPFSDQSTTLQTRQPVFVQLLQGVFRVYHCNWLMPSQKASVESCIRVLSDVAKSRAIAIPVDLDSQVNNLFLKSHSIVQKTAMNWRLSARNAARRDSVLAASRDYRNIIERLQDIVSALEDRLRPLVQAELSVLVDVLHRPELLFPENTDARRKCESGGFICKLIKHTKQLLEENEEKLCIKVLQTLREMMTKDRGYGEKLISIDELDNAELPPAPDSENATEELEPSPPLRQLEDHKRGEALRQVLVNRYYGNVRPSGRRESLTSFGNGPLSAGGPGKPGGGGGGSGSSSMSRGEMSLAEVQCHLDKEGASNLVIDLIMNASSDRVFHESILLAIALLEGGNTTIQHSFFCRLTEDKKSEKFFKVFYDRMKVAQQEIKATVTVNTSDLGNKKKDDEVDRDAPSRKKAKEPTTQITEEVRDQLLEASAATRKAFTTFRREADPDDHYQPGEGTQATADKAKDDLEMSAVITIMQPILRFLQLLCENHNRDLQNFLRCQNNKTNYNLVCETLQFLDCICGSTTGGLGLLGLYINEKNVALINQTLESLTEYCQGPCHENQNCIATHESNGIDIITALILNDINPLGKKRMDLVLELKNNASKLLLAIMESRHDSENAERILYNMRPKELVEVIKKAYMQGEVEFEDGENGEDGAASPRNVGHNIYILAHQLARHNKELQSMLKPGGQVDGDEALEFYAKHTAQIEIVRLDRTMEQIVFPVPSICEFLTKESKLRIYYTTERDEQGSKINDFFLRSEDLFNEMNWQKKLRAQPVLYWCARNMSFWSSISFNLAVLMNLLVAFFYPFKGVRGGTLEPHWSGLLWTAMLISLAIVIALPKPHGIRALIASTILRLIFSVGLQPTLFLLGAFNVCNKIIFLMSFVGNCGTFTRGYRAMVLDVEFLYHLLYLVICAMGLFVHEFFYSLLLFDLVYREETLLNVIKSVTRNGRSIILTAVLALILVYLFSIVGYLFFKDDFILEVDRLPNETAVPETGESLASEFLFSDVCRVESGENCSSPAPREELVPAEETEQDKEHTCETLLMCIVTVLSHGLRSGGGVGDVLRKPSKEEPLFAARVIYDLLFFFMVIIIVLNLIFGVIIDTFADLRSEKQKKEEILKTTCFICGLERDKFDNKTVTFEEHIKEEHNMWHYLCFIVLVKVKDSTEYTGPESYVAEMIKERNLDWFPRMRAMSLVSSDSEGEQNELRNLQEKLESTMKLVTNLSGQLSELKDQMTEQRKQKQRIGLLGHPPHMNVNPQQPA

In the case of “RFP-ERp44 (red fluorescent protein-tagged ERp44) (from UniProt Q9D1Q6 30-406)”, the peak amplitude of BCR-induced Ca2+ release in DT40-KMN60 cells, percent of non-transfected cells in assay [1] is 60.6%. In assay [2], this substance yielded a peak amplitude of ATP-induced Ca2+ transient in HeLa cells, percent of non-transfected cells of 69.3%.

“RFP-ERp44-C58S (from UniProt Q9D1Q6 30-406)”: the Ca2+ response in siERp44-3U-pretreated HeLa cells compared with RFP-RDEL-transfected cells in assay [2] was 77.1%.
